PMC9882641

Experiments:
Assay in all cases: enzyme inhibition assay (chromogenic substrate, fit to Morrison's tight binding equation); MMP-2ACT (0.6 nM), MMP-9CAT (3 nM) or MMP-14CAT (1 nM) incubated with 0-25 nM N-TIMP2 variant for 1 h at 37 C in 50 mM HEPES, 10 mM CaCl2, 0.05% Brij-35, 1 mM DTNB, pH 7.5; then 100 uM chromogenic substrate, absorbance at 412 nm; three independent experiments
[1] = target: activated MMP-2 (MMP-2ACT) (human) (UniProt P08253)
[2] = target: human MMP-14 catalytic domain (MMP-14CAT) (human) (UniProt P50281)
[3] = target: human MMP-9 catalytic domain (MMP-9CAT) (human) (UniProt P14780)

Substance	Ki [1] [nM]	Ki [2] [nM]	Ki [3] [nM]
N-TIMP2-S2HqAla (from UniProt P16035 27-153) (domain or fragment)	97.7	97.7	70.4
N-TIMP2-S69DOPA (from UniProt P16035 27-153) (domain or fragment)	0.46	21.4	0.468
N-TIMP2-A70DOPA (from UniProt P16035 27-153) (domain or fragment)	0.785	10.6	0.452
N-TIMP2-S69HqAla (from UniProt P16035 27-153) (domain or fragment)	0.606	11.5	0.449
N-TIMP2-S2DOPA (from UniProt P16035 27-153) (domain or fragment)	3.14	14.6	0.623

The remaining substances from weak to strong by Ki [1], led by results:

Ki [1] [nM]	Ki [2] [nM]	Ki [3] [nM]	Substance
16.7	27.2	1.93	N-TIMP2-A70HqAla (from UniProt P16035 27-153) (domain or fragment)
1	14.2	0.849	N-TIMP2-L100DOPA (from UniProt P16035 27-153) (domain or fragment)
0.413	4.72	0.543	N-TIMP2-Y36HqAla (from UniProt P16035 27-153) (domain or fragment)
